Data from PMC3526836.

B1: NHERF1 PDZ1 domain (N-terminal PDZ domain of NHERF1/EBP50), wild type (domain or fragment)
chain: LPRLCCLEKGPNGYGFHLHGEKGKLGQYIRLVEPGSPAEKAGLLAGDRLVEVNGENVEKETHQQVVSRIRAALNAVRLLVVDPETDEQL
B2: NHERF1 PDZ1 domain Y38A/R40A (domain or fragment)
chain: LPRLCCLEKGPNGYGFHLHGEKGKLGQAIALVEPGSPAEKAGLLAGDRLVEVNGENVEKETHQQVVSRIRAALNAVRLLVVDPETDEQL
B3: NHERF1 PDZ1 domain K32A/K34A (domain or fragment)
chain: LPRLCCLEKGPNGYGFHLHGEAGALGQYIRLVEPGSPAEKAGLLAGDRLVEVNGENVEKETHQQVVSRIRAALNAVRLLVVDPETDEQL

Each binder was assayed against C-terminal peptide of cystic fibrosis transmembrane conductance regulator (CFTR), F-Ahx-VQDTLR (assay: fluorescence polarisation).

B1 and B2 are within 1.5-fold of each other in Kd: 13 µM for the first, 14 µM for the second.

B3 was tested, and the Kd was 13 µM.
